We go through two substances from US20240408238A1.

For this test, the target named is Nme2Cas9 expressed from plasmid in HEK293T cells (human-codon-optimized, NLSs and 3xHA tag) (Neisseria meningitidis strain De11444). The test is described as follows: cell-based or functional assay.

Consider AcrIIC1Nme, for which the genome editing in HEK293T cells at varied ratios of Acr plasmid to Cas9 plasmid: ratio giving full inhibition (mass ratio Acr plasmid:Nme2Cas9 plasmid) came to 2.
The value for AcrIIC4Hpa was 1.
